Results published in patent US20100255008A1 (Hoffmann-La Roche, published 2010).
Residue numbers refer to the chain shown, from its start.

T1: Biotinylated human soluble TWEAK (human, UniProt O43508 99-249, limits assumed, biotinylated (sites not given))
T1 construct: also called Human TWEAK
T1 sequence (looked up): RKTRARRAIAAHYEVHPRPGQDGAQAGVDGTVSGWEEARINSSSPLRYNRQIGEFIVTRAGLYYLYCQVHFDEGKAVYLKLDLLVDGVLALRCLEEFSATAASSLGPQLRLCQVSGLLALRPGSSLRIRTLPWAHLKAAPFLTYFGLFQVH

T2: human Flag-tagged soluble TWEAK (amino acids 106-249) (human, UniProt O43508 106-249)
T2 construct: the tag is put first here only by convention; also called Human TWEAK; not shown: Flag tag
T2 sequence (looked up): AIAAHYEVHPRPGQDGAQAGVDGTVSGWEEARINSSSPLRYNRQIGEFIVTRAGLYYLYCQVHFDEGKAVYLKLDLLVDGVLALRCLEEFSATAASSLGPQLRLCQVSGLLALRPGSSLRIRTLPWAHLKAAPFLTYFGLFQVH

T3: Human recombinant soluble TWEAK (human, UniProt O43508 99-249, limits assumed)
T3 sequence (looked up): T1 sequence (looked up)

B1: TW202 (antibody, V domains shown)
VH: QLQLQESGLGLVKPSQSLTLTCSVTGFSITTPDYSWHWIRQLPGQTLEWMGFLYYEGDTYYNPSLKSRISIARDASKNQFFLQLKAVTTEDTATYFCARRKYSGYGNWFAYWGQGTLVTVSL
VL: QPVLTQSPSASASLRASVKLTCTLSSQHSTYYIEWYQQRPDKAPKYVMYLDSDGSHIKGDGIPDRFSGSSSGAHRYLSISNLQPEDEAIYHCGVYDSTAGAVFGSGTQLTVLG
notes: Armenian hamster monoclonal antibody; also called Antibody 202
B2: TW205 (antibody, V domains shown)
VH: B1 VH with L2I, Q3H, L42F, A86S, A98V, L117Q, L122S
VL: B1 VL with S7A, R39H, K45R, L50V, I62V, H74R
notes: Armenian hamster monoclonal antibody; also called Antibody 205
B3: Antibody 15 (antibody, V domains shown)
VH: QVQLQESGPGLVKPSETLSLTCAVSGYSIRSGYWWSWIRQPPGKGLEWIGQIYNKGNTDNNPALKSRVTISVDTSKNQFSLKLSSVTAADTAVYYCARVFWDDAYFDVWGQGTMVTVSS
VL: EIVLTQSPATLSLSPGERATLSCKASQSVSIGPIHLMHWYQQKPGQAPRLLIYGASNPESGIPARFSGSGSGTDFTLTISSLEPEDFAVYYCQQGKESPRTFGQGTKLEIK
B4: Antibody 16 (antibody, V domains shown)
VH: B3 VH with N61S, A63S
VL: B3 VL
B5: Antibody 24 (antibody, V domains shown)
VH: B3 VH with A23T, N61S, A63S
VL: B3 VL with A9G, A64D, S81R
B6: Antibody 21 (antibody, V domains shown)
VH: B3 VH
VL: B3 VL with A9G, A64D, S81R
B7: Antibody 18 (antibody, V domains shown)
VH: B3 VH with A23T, N61S, A63S
VL: B3 VL
B8: Antibody 22 (antibody, V domains shown)
VH: B3 VH with N61S, A63S
VL: B3 VL with A9G, A64D, S81R
B9: Antibody 17 (antibody, V domains shown)
VH: B3 VH with A23T
VL: B3 VL
B10: Antibody 20 (antibody, V domains shown)
VH: B3 VH with P41Q, N61S, A63S, R67Q
VL: B3 VL
B11: Antibody 25 (antibody, V domains shown)
VH: B3 VH with P41Q, R67Q
VL: B3 VL with A9G, A64D, S81R
B12: Antibody 19 (antibody, V domains shown)
VH: B3 VH with P41Q, R67Q
VL: B3 VL
B13: Antibody 26 (antibody, V domains shown)
VH: B3 VH with P41Q, N61S, A63S, R67Q
VL: B3 VL with A9G, A64D, S81R
B14: Antibody 23 (antibody, V domains shown)
VH: B3 VH with A23T
VL: B3 VL with A9G, A64D, S81R
B15: TW212 (antibody)
VL: DIVLTQSPAYLTMSPGQTTTISCKASQSVSIGPIHLMHWYQQKPGQPPRLLIYGASNPESGVPARFSGSGSGTDFTLTIHPVEADDAATYFCQQGKESPRTFGPGTKLEITRADAKPTVSIFPPSSEQLGTGSATLVCFVNNFYPKDINVKWKVDGSEKRDGVLQSVTDQDSKDSTYSLSSTLSLTKADYERHNLYTCEVTHKTSTAAIVKTLNRNEC
VH: QVQLQESGPGLLKPAQSLSLTCTVTGYSIRSGYWWSWIRQQPGKGLEWMGQIYNKGNTDNNPSLKSQITMTVDTSKNQFFLRLRSVTTEDTAVYYCARVFWDDAYFDVWGQGIQVTVSSATTTAPSVYPLAPACDSTTSTTNTVTLGCLVKGYFPEPVTVSWNSGALTSGVHTFPSVLHSGLYSLSSSVTVPSSTWPSQTVTCNVAHPASSTKVDKKIVPGDGSGCKPCTCPGPEVSSVFIFPPKPKDVLTISLSPKVTCVVVDISQDDPEVQFSWFIDGKEVHTAVTQPREEQFNSTYRMVSVLPILHQDWLNGKEFKCKVNSPAFPVPIEKTISKRRGQLQVPQVYTMPPPKEQLTQSQVSLTCMIKGFYPEDIDVAWQKNGQPEQSFKNTPPVLDTDETYFLYSKLDVKKDDWEKGDTFTCSVVHEALHNHHTEKTLSQRPGK
notes: Armenian hamster monoclonal antibody; also called Antibody 212
B16: TW212chi (antibody, human IgG1)
light: DIVLTQSPAYLTMSPGQTTTISCKASQSVSIGPIHLMHWYQQKPGQPPRLLIYGASNPESGVPARFSGSGSGTDFTLTIHPVEADDAATYFCQQGKESPRTFGPGTKLEITRTVAAPSVFIFPPSDEQLKSGTASVVCLLNNFYPREAKVQWKVDNALQSGNSQESVTEQDSKDSTYSLSSTLTLSKADYEKHKVYACEVTHQGLSSPVTKSFNRGEC
heavy: not shown

Molecular target: T1, Biotinylated human soluble TWEAK
Test: Biacore SPR, biotinylated human soluble TWEAK on streptavidin sensor, antibody 100 nM as analyte, 25° C.
Method: A Biacore 2000 instrument was used with a Biacore streptavidin coated sensor mounted into the system. The system buffer HBS-ET (10 mM HEPES pH 7.4, 150 mM NaCl, 1 mM EDTA, 0.05% Tween® 20) was used at a flow rate of 100 μl/min. The sample buffer was the system buffer. Biotinylated human soluble TWEAK and biotinylated murine soluble TWEAK was immobilized on different flow cells on the SA sensor at 150 RU each. The flow cell FC1 was used as a blank reference cell. Each antibody was injected into the system as an analyte at 100 nM at 100 μl/min for 2 min association time. The dissociation of the immunecomplexes were monitored for 5 min. The sensor surface was washed with HBS-ET for 10 seconds and regenerated using 2×2 minutes injections with 10 mM glycine pH 2.25. This procedure was done at 25° C. The kinetically rate limiting step of the complex dissociation phase in the interval [240 s-300 s] was taken to calculate the dissociation rate kd [1/s] (Biacore Evaluation Software 4.0). According to the equation t1/2 diss=ln(2)/(60×kd), the half-life of each immunocomplexe in minutes was calculated.

| t/2 diss [min] 25° C. [min] | t/2 diss. [min] 25° C. [min] | Binder |
| --- | --- | --- |
| 53 |  | B1 |
| 30 |  | B2 |
|  | 18 | B3 |
|  | 15 | B4 |
|  | 15 | B5 |
|  | 17 | B6 |
|  | 16 | B7 |
|  | 14 | B8 |
|  | 18 | B9 |
|  | 15 | B10 |
|  | 17 | B11 |
|  | 17 | B12 |
|  | 16 | B13 |
|  | 17 | B14 |
| 20 |  | B15 |
| 13 |  | B16 |

Molecular target: T2, human Flag-tagged soluble TWEAK (amino …)
Test: receptor interaction ELISA: antibody pre-incubated with human Flag-tagged soluble TWEAK, binding to coated human Fn14:Fc
Method: Blocking of human TWEAK/human Fn14 interaction was shown by receptor interaction ELISA. 96-well Maxisorp® plates (Nunc) were coated with 100 μl 1 μg/ml human Fn14:Fc (extracellular domain of human Fn14 (amino acids 1-75) fused to Fc portion of human IgG1) in PBS per well for 1.5 h at room temperature and blocked with a solution of 5% FBS in PBS for 30 minutes at room temperature under shaking. […] Wells were filled with 100 μl of anti-FLAG-HRP detection antibody, diluted 1:5000 in blocking buffer, and incubated for 1 h at room temperature. After four more wash steps, the signal was developed by addition of 100 μl 3,3,5,5-Tetramethylbenzidine (TMB) solution for approximately ten minutes. The reaction was stopped by adding 100 μl of 1 N HCl, and absorbance measured at 450 nm (reference wavelength 620 nm).

| IC50 [mg/L] | Binder |
| --- | --- |
| 0.0092 | B1 |
| 0.0088 | B2 |
| 0.014 | B3 |
| 0.022 | B4 |
| 0.02 | B5 |
| 0.012 | B6 |
| 0.016 | B7 |
| 0.017 | B8 |
| 0.014 | B9 |
| 0.035 | B10 |
| 0.042 | B11 |
| 0.015 | B12 |
| 0.094 | B13 |
| 0.013 | B14 |
| 0.0151 | B15 |
| 0.0134 | B16 |

Molecular target: T3, Human recombinant soluble TWEAK
Test: cell-based or functional assay

| IL-8 Secretion IC50 [mg/L] | Binder |
| --- | --- |
| 0.146 | B1 |
| 0.151 | B2 |
| 0.141 | B3 |
| 0.163 | B4 |
| 0.165 | B5 |
| 0.224 | B6 |
| 0.189 | B7 |
| 0.249 | B8 |
| 0.146 | B9 |
| 0.401 | B10 |
| 0.475 | B11 |
| 0.253 | B12 |
| 0.222 | B13 |
| 0.242 | B14 |
| 0.112 | B15 |
